{
  "source": "the RNAGym collection of RNA variant scans (doi:10.1021/acssynbio.7b00057)",
  "parents": {"B1": {"name": "Pistol ribozyme (parent)", "chain": "GGGUCGUUGUUCCAUAAUCGCGUGGAUAUGGCACGCAAGUUUCUACCGGGCACCGUAAAUGUCCGACUGGAGCCGUUCGGGCGGCUAUAAACAGACCUCAGGCCCGAAGCGUGGCGGCACCUGCCGCCGGUGGUAAAAAAGAUCGGAAGAGCACACGUCU"}},
  "data": [
    {"variants_of": "B1", "assay": "aptazyme ON/OFF ratio, guanine; higher = stronger switching; co-transcriptional cleavage with and without guanine", "values": [
      {"variant": "GGGUCGUACUAACAUAAUCGCGUGGAUAUGGCACGCAAGUUUCUACCGGGCACCGUAAAUGUCCGACUGGAGCCGUUCGGGCGGCUAUAAACAGACCUCAGGCCCGAAGCGUGGCGGCACCUGCCGCCGGUGGUAAAAAAGAUCGGAAGAGCACACGUCU", "aptazyme ON/OFF ratio": 1.19},
      {"variant": "GGGUCGUACUAUCAUAAUCGCGUGGAUAUGGCACGCAAGUUUCUACCGGGCACCGUAAAUGUCCGACUGGAGCCGUUCGGGCGGCUAUAAACAGACCUCAGGCCCGAAGCGUGGCGGCACCUGCCGCCGGUGGUAAAAAAGAUCGGAAGAGCACACGUCU", "aptazyme ON/OFF ratio": 1.22},
      {"variant": "GGGUCGUACUAGCAUAAUCGCGUGGAUAUGGCACGCAAGUUUCUACCGGGCACCGUAAAUGUCCGACUGGAGCCGUUCGGGCGGCUAUAAACAGACCUCAGGCCCGAAGCGUGGCGGCACCUGCCGCCGGUGGUAAAAAAGAUCGGAAGAGCACACGUCU", "aptazyme ON/OFF ratio": 1.22},
      {"variant": "GGGUCGUACUAUAAUAAUCGCGUGGAUAUGGCACGCAAGUUUCUACCGGGCACCGUAAAUGUCCGACUGGAGCCGUUCGGGCGGCUAUAAACAGACCUCAGGCCCGAAGCGUGGCGGCACCUGCCGCCGGUGGUAAAAAAGAUCGGAAGAGCACACGUCU", "aptazyme ON/OFF ratio": 1.14},
      {"variant": "GGGUCGUACUAUGAUAAUCGCGUGGAUAUGGCACGCAAGUUUCUACCGGGCACCGUAAAUGUCCGACUGGAGCCGUUCGGGCGGCUAUAAACAGACCUCAGGCCCGAAGCGUGGCGGCACCUGCCGCCGGUGGUAAAAAAGAUCGGAAGAGCACACGUCU", "aptazyme ON/OFF ratio": 1.15},
      {"variant": "GGGUCGUACUAUUAUAAUCGCGUGGAUAUGGCACGCAAGUUUCUACCGGGCACCGUAAAUGUCCGACUGGAGCCGUUCGGGCGGCUAUAAACAGACCUCAGGCCCGAAGCGUGGCGGCACCUGCCGCCGGUGGUAAAAAAGAUCGGAAGAGCACACGUCU", "aptazyme ON/OFF ratio": 1.15},
      {"variant": "GGGUCGUACUAGAAUAAUCGCGUGGAUAUGGCACGCAAGUUUCUACCGGGCACCGUAAAUGUCCGACUGGAGCCGUUCGGGCGGCUAUAAACAGACCUCAGGCCCGAAGCGUGGCGGCACCUGCCGCCGGUGGUAAAAAAGAUCGGAAGAGCACACGUCU", "aptazyme ON/OFF ratio": 1.12},
      {"variant": "GGGUCGUACUAGUAUAAUCGCGUGGAUAUGGCACGCAAGUUUCUACCGGGCACCGUAAAUGUCCGACUGGAGCCGUUCGGGCGGCUAUAAACAGACCUCAGGCCCGAAGCGUGGCGGCACCUGCCGCCGGUGGUAAAAAAGAUCGGAAGAGCACACGUCU", "aptazyme ON/OFF ratio": 1.14},
      {"variant": "GGGUCGUACUAGGAUAAUCGCGUGGAUAUGGCACGCAAGUUUCUACCGGGCACCGUAAAUGUCCGACUGGAGCCGUUCGGGCGGCUAUAAACAGACCUCAGGCCCGAAGCGUGGCGGCACCUGCCGCCGGUGGUAAAAAAGAUCGGAAGAGCACACGUCU", "aptazyme ON/OFF ratio": 1.17},
      {"variant": "GGGUCGUACUAAAAUAAUCGCGUGGAUAUGGCACGCAAGUUUCUACCGGGCACCGUAAAUGUCCGACUGGAGCCGUUCGGGCGGCUAUAAACAGACCUCAGGCCCGAAGCGUGGCGGCACCUGCCGCCGGUGGUAAAAAAGAUCGGAAGAGCACACGUCU", "aptazyme ON/OFF ratio": 1.22},
      {"variant": "GGGUCGUACUAAGAUAAUCGCGUGGAUAUGGCACGCAAGUUUCUACCGGGCACCGUAAAUGUCCGACUGGAGCCGUUCGGGCGGCUAUAAACAGACCUCAGGCCCGAAGCGUGGCGGCACCUGCCGCCGGUGGUAAAAAAGAUCGGAAGAGCACACGUCU", "aptazyme ON/OFF ratio": 1.18},
      {"variant": "GGGUCGUACUAAUAUAAUCGCGUGGAUAUGGCACGCAAGUUUCUACCGGGCACCGUAAAUGUCCGACUGGAGCCGUUCGGGCGGCUAUAAACAGACCUCAGGCCCGAAGCGUGGCGGCACCUGCCGCCGGUGGUAAAAAAGAUCGGAAGAGCACACGUCU", "aptazyme ON/OFF ratio": 1.21},
      {"variant": "GGGUCGUACUACAAUAAUCGCGUGGAUAUGGCACGCAAGUUUCUACCGGGCACCGUAAAUGUCCGACUGGAGCCGUUCGGGCGGCUAUAAACAGACCUCAGGCCCGAAGCGUGGCGGCACCUGCCGCCGGUGGUAAAAAAGAUCGGAAGAGCACACGUCU", "aptazyme ON/OFF ratio": 1.16},
      {"variant": "GGGUCGUACUACGAUAAUCGCGUGGAUAUGGCACGCAAGUUUCUACCGGGCACCGUAAAUGUCCGACUGGAGCCGUUCGGGCGGCUAUAAACAGACCUCAGGCCCGAAGCGUGGCGGCACCUGCCGCCGGUGGUAAAAAAGAUCGGAAGAGCACACGUCU", "aptazyme ON/OFF ratio": 1.06},
      {"variant": "GGGUCGUACGGCUAUAAUCGCGUGGAUAUGGCACGCAAGUUUCUACCGGGCACCGUAAAUGUCCGACUGGAGCCGUUCGGGCGGCUAUAAACAGACCUCAGGCCCGAAGCGUGGCGGCACCUGCCGCCGGUGGUAAAAAAGAUCGGAAGAGCACACGUCU", "aptazyme ON/OFF ratio": 1.23},
      {"variant": "GGGUCGUACGGCAAUAAUCGCGUGGAUAUGGCACGCAAGUUUCUACCGGGCACCGUAAAUGUCCGACUGGAGCCGUUCGGGCGGCUAUAAACAGACCUCAGGCCCGAAGCGUGGCGGCACCUGCCGCCGGUGGUAAAAAAGAUCGGAAGAGCACACGUCU", "aptazyme ON/OFF ratio": 1.23},
      {"variant": "GGGUCGUACGGCGAUAAUCGCGUGGAUAUGGCACGCAAGUUUCUACCGGGCACCGUAAAUGUCCGACUGGAGCCGUUCGGGCGGCUAUAAACAGACCUCAGGCCCGAAGCGUGGCGGCACCUGCCGCCGGUGGUAAAAAAGAUCGGAAGAGCACACGUCU", "aptazyme ON/OFF ratio": 1.16},
      {"variant": "GGGUCGUACUACCAUAAUCGCGUGGAUAUGGCACGCAAGUUUCUACCGGGCACCGUAAAUGUCCGACUGGAGCCGUUCGGGCGGCUAUAAACAGACCUCAGGCCCGAAGCGUGGCGGCACCUGCCGCCGGUGGUAAAAAAGAUCGGAAGAGCACACGUCU", "aptazyme ON/OFF ratio": 1.21}
    ]}
  ]
}
